Laboratory results as given in article PMC9409100.

Experiments:
Assay in all cases: pull-down
[1] = target: T1, His6-Myc-Csy4* (inactive Csy4) H29A;S50C (Pseudomonas aeruginosa) (UniProt Q02MM2); settings: no imidazole; 'almost 50%'; RNA folded in 20 mM Tris-HCl pH 7.5, 100 mM (salt not given), 3 mM MgCl2; binding 90 min at 4 C on beads; RNA binding buffer 20 mM Tris-HCl pH 7.5, 100 mM …
T1 sequence: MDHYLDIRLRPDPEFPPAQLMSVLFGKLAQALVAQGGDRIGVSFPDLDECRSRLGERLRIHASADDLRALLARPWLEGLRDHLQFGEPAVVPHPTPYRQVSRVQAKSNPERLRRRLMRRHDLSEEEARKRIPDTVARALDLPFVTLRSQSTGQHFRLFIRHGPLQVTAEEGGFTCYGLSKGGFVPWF

[2] = target: T2, His6-MBP-Csy4* (inactive Csy4) H29A;S50C (Pseudomonas aeruginosa) (UniProt Q02MM2); settings: no imidazole; RNA folded in 20 mM Tris-HCl pH 7.5, 100 mM (salt not given), 3 mM MgCl2; binding 90 min at 4 C on beads; RNA binding buffer 20 mM Tris-HCl pH 7.5, 100 mM …
T2 sequence: T1 sequence

[3] = target: T3, His6-TwinStrep-Csy4* (inactive Csy4) H29A;S50C (Pseudomonas aeruginosa) (UniProt Q02MM2); settings: no imidazole; RNA folded in 20 mM Tris-HCl pH 7.5, 100 mM (salt not given), 3 mM MgCl2; binding 90 min at 4 C on beads; RNA binding buffer 20 mM Tris-HCl pH 7.5, 100 mM …
T3 sequence: T1 sequence

Sequence: GGGUUCACUGCCGUAUAGGCAGAUAUAGAAGGUAGUGGAUCUCGACAGGGUUGAUAUGAGAACACACGAGUAAUCAACGGCUGUAAUGACGCUACGUCAUUGUUACAGCUCUCGUUUUCAUGUGUUCUCAGGUCACCCCUGCUGAGCUCUUUCUCUACCGUAAUUAC [Csy4-hairpin-tagged pri-miR398b-SL]
- binding signal (% transcript depleted from supernatant) [1]: 50
- binding signal (% transcript depleted from supernatant) [2]: 80
- binding signal (% transcript depleted from supernatant) [3]: < 10
